Test [1] concerns the target SIRPα (Homo sapiens) (UniProt P78324). Particulars: cited from earlier work.
Test [2] concerns the target ISB 1442 with a wild-type Fc (without Fc enhancing mutations) (human). In words: SPR; antibody constructs captured on a Protein L Series S CM5 chip, FcRn flowed over; Biacore 8K+, 25 °C, pH 6.0; steady state affinity model; three replicates. For orientation: In SPR one partner is held on a chip, and binding of the other changes the refractive index at the surface.
Test [3] deals with ISB 1442, CD38 and CD47 bispecific biparatopic antibody (enhanced Fc) (human). Described as above.
Test [4] deals with trastuzumab. Described as above.
Test [5] has as its target ISB 1442, CD38 and CD47 bispecific biparatopic antibody (enhanced Fc) (human). Kind of test: SPR; antibody constructs captured on a Protein L Series S CM5 chip, Fc receptors flowed over; Biacore 8K+, 25 °C, neutral pH; 1:1 binding model (FcγRI and FcγRIIIa); three replicates.
In test [6] the target is trastuzumab. The description is as above.
The target of test [7] is ISB 1442 (human). Kind of test: SPR; antibody constructs immobilised on a Protein L Series S CM5 chip, increasing concentrations of FcRn flushed; Biacore 8K+, 25 °C, pH 6.0; steady state affinity model.
Test [8] addresses ISB 1442 silenced Fc (human). Described as above.
The target in test [9] is Trastuzumab. In words: SPR; antibody constructs immobilised on a Protein L Series S CM5 chip, increasing concentrations of Fc receptor flushed; Biacore 8K+, 25 °C, neutral pH; 1:1 binding model.
Test [10] deals with ISB 1442 (human). The test is described as above.
Test [11] has as its target ISB 1442 WT Fc (human). The test is described as above.

Values joined by “and” are separate entries in the source; they are usually repeats but may differ in a detail not shown here. Equal values may be shown once.

One may read the Kd as the constant that tells how readily two partners part at equilibrium.

his-tagged human FcγRIIIa ECD, sequence (P08637 17-208): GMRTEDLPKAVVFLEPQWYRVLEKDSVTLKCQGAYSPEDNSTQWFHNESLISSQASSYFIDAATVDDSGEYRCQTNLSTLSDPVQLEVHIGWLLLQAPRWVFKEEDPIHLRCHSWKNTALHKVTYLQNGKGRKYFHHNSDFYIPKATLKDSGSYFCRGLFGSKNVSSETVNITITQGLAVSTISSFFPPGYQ
his-tagged human FcRn ECD & β2 microglobulin, sequence (P55899 24-297): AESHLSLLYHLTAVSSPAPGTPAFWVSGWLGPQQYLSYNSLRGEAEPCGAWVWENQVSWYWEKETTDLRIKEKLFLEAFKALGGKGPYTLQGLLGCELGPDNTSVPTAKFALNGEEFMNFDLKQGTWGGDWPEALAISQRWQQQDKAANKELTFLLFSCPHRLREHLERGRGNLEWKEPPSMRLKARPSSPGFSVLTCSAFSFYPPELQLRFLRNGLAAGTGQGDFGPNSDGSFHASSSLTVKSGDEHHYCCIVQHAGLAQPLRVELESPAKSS
his-tagged human FcRn ECD & β2 microglobulin, sequence (P61769 21-119): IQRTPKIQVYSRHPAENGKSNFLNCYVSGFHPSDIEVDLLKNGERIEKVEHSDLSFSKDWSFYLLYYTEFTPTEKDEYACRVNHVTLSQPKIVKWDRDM
human FcγRIIIa ECD, sequence (P08637 17-208): as the sequence (P08637 17-208) above
human FcRn ECD & β2 microglobulin, sequence (P55899 24-297): as the sequence (P55899 24-297) above
human FcRn ECD & β2 microglobulin, sequence (P61769 21-119): as the sequence (P61769 21-119) above
human FcγRI extracellular domain (ECD), sequence (P12314 16-292): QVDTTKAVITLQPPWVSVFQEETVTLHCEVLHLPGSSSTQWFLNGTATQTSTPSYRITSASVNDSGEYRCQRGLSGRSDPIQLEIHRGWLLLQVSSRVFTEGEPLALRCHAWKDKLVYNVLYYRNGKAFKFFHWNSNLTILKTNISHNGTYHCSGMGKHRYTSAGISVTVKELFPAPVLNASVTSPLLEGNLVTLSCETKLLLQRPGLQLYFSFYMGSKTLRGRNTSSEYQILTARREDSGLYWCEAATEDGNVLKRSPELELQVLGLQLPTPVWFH

In the case of CD47 (from UniProt Q08722), in test [1], the Kd was 1000 nM.

Consider “his-tagged human FcRn ECD & β2 microglobulin (from UniProt P55899 24-297; P61769 21-119) (complex)”, for which the Kd was 236 nM in [2]; 129 nM and 189 nM in [3]; 181 nM in test [3] (mean); 253 nM and 217 nM and 203 nM in test [4].

Take “his-tagged human FcγRIIIa ECD (from UniProt P08637 17-208) (receptor)”: the equilibrium dissociation constant (Kd) in test [5] was 13.2 nM and 12.6 nM and 13.8 nM; in test [5] (mean), 13.2 nM; in test [6], 134 nM.

Take “human FcRn ECD & β2 microglobulin (from UniProt P55899 24-297; P61769 21-119) (complex)”: the Kd came out at 181 nM in test [7] and 221 nM in test [8].

The substance “human FcγRI extracellular domain (ECD) (from UniProt P12314 16-292) (receptor)” gave a Kd in [9] of 0.21 nM.

For “human FcγRIIIa ECD (from UniProt P08637 17-208) (receptor)”, the Kd in [10] stood at 13 nM; in test [11], 57 nM.
